Biological target: SARS-CoV-2 spike RBD (called RBD S glycoprotein) (SARS-CoV-2 (2019-nCoV), UniProt P0DTC2 319-541)
Test: direct ELONA
Details: protein: commercial; label: 5'-biotin

B1: CoV2-RBD-1C (ssDNA)
DNA: CAGCACCGACCTTGTGCTTTGGGAGTGCTGGTCCAAGGGCGTTAATGGACA
binding result: binds

Source: article PMC9559407, “Enzyme linked oligonucleotide assay for the sensitive detection of SARS-CoV-2 variants”
